Changes are numbered by the printed parent chain.

One sequence from article PMC12412624, “Engineered Cas12j‐8 is a Versatile Platform for Multiplexed Genome Modulation in Mammalian Cells” can be followed below.

The subject of series [1] is T1, dCas12j-8 E258R+D313R+D495R+D527R E258R;D313R;D495R;D527R;D369A;E567A;D658A (bacteriophage (metagenome)).
T1 sequence: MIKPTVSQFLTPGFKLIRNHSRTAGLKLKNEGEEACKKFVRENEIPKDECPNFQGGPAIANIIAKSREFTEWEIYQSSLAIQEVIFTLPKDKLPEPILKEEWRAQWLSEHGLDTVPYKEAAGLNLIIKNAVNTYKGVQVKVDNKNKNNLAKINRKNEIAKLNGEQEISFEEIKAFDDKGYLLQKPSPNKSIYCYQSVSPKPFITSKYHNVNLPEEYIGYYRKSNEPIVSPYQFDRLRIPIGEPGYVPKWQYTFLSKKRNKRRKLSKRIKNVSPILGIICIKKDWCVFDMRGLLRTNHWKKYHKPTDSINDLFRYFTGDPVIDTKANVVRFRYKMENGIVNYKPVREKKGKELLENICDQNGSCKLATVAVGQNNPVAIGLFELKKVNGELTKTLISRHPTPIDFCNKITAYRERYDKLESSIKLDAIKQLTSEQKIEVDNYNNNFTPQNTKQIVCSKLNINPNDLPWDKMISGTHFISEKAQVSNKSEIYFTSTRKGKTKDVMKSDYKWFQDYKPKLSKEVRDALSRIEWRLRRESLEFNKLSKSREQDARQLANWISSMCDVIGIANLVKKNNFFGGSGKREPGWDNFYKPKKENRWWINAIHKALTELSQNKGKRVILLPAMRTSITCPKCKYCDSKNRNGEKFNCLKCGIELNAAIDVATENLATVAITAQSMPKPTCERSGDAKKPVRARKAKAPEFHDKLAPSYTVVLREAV
The conditions noted are these: HEK293T cells; panel 1e (compare within a panel only); scale: mean GFP / mean GFP of wild type, printed, no background subtraction.

For series [2], the system named is T2, dCas12j-8 D512R D512R;D369A;E567A;D658A (bacteriophage (metagenome)).
T2 sequence: T1 sequence with R258E, R313D, R495D, D512R, R527D
The conditions noted are these: HEK293T cells; panel 1c (compare within a panel only); scale: mean GFP / mean GFP of wild type, printed, no background subtraction.

The test system of series [3] is T3, dCas12j-8 E547R E547R;D369A;E567A;D658A (bacteriophage (metagenome)).
T3 sequence: T1 sequence with R258E, R313D, R495D, R527D, E547R
Particulars: HEK293T cells; panel 1c (compare within a panel only); scale: mean GFP / mean GFP of wild type, printed, no background subtraction.

Series [4] has as its system T4, dCas12j-8 E258R+D495R+E547R E258R;D495R;E547R;D369A;E567A;D658A (bacteriophage (metagenome)).
T4 sequence: T1 sequence with R313D, R527D, E547R
Particulars: HEK293T cells; panel 1e (compare within a panel only); scale: mean GFP / mean GFP of wild type, printed, no background subtraction.

In the case of “CUUUCAAGACUAAUAGAUUGCUCCUUACGAGGAGACACUCCCUAUCAGUGAUAGAG / TTNACTCCCTATCAGTGATAGAG / CTCTATCACTGATAGGGAGTNAA [TetO]”, the binding signal in series [1] was 5.3; in series [2], 1.07; in series [3], 1.22; in series [4], 4.13.
